Measurements from patent publication US20110118447A1.

Assays:
[1] = target: binding partner of C5A (XPA23); experiment: Biacore K-off
[2] = target: binding partner of C5A (XPA23); experiment: Biacore

| fold difference in affinity vs original [1] [fold] | fold affinity vs original [2] [fold] | fold difference in affinity vs original [2] [fold] | Binder |
| --- | --- | --- | --- |
| 0.15 | 0.15 | – | C5A (XPA23) VH S30N (antibody, V domains shown) VH: EVQLLESGGGLVQPGGSLRLSCAASGFTFNKYFMFWVRQAPGKGLEWVSVISPSGGMTRYADSVKGRFTISRDNSKNTLYLQMNSLRAEDTAVYYCARVGYGGNSDYWGQGTLVTVSS VL: DIQMTQSPSSVSASVGDRLTIICRASQDINRWLAWYQQTPGNAPKLLIHSATSLQSGVPSRFSGSGSGTDFTLTINSLQPEDFATYYCQQADSFPLTFGGGTKVEIK |
| 0.97 | 0.97 | – | C5A (XPA23) VH F33N (antibody, V domains shown) VH: EVQLLESGGGLVQPGGSLRLSCAASGFTFSKYNMFWVRQAPGKGLEWVSVISPSGGMTRYADSVKGRFTISRDNSKNTLYLQMNSLRAEDTAVYYCARVGYGGNSDYWGQGTLVTVSS VL: DIQMTQSPSSVSASVGDRLTIICRASQDINRWLAWYQQTPGNAPKLLIHSATSLQSGVPSRFSGSGSGTDFTLTINSLQPEDFATYYCQQADSFPLTFGGGTKVEIK |
| 0.13 | – | 0.13 | C5A (XPA23) VH S30G (antibody, V domains shown) VH: EVQLLESGGGLVQPGGSLRLSCAASGFTFGKYFMFWVRQAPGKGLEWVSVISPSGGMTRYADSVKGRFTISRDNSKNTLYLQMNSLRAEDTAVYYCARVGYGGNSDYWGQGTLVTVSS VL: DIQMTQSPSSVSASVGDRLTIICRASQDINRWLAWYQQTPGNAPKLLIHSATSLQSGVPSRFSGSGSGTDFTLTINSLQPEDFATYYCQQADSFPLTFGGGTKVEIK |
| 1.11 | 1.11 | – | C5A (XPA23) VH K31H (antibody, V domains shown) VH: EVQLLESGGGLVQPGGSLRLSCAASGFTFSHYFMFWVRQAPGKGLEWVSVISPSGGMTRYADSVKGRFTISRDNSKNTLYLQMNSLRAEDTAVYYCARVGYGGNSDYWGQGTLVTVSS VL: DIQMTQSPSSVSASVGDRLTIICRASQDINRWLAWYQQTPGNAPKLLIHSATSLQSGVPSRFSGSGSGTDFTLTINSLQPEDFATYYCQQADSFPLTFGGGTKVEIK |
| 0.78 | – | 0.78 | C5A (XPA23) VH F33T (antibody, V domains shown) VH: EVQLLESGGGLVQPGGSLRLSCAASGFTFSKYTMFWVRQAPGKGLEWVSVISPSGGMTRYADSVKGRFTISRDNSKNTLYLQMNSLRAEDTAVYYCARVGYGGNSDYWGQGTLVTVSS VL: DIQMTQSPSSVSASVGDRLTIICRASQDINRWLAWYQQTPGNAPKLLIHSATSLQSGVPSRFSGSGSGTDFTLTINSLQPEDFATYYCQQADSFPLTFGGGTKVEIK |
| 1.33 | 1.33 | – | C5A (XPA23) VH Y32S (antibody, V domains shown) VH: EVQLLESGGGLVQPGGSLRLSCAASGFTFSKSFMFWVRQAPGKGLEWVSVISPSGGMTRYADSVKGRFTISRDNSKNTLYLQMNSLRAEDTAVYYCARVGYGGNSDYWGQGTLVTVSS VL: DIQMTQSPSSVSASVGDRLTIICRASQDINRWLAWYQQTPGNAPKLLIHSATSLQSGVPSRFSGSGSGTDFTLTINSLQPEDFATYYCQQADSFPLTFGGGTKVEIK |
| 0.68 | 0.68 | – | C5A (XPA23) VH Y32D (antibody, V domains shown) VH: EVQLLESGGGLVQPGGSLRLSCAASGFTFSKDFMFWVRQAPGKGLEWVSVISPSGGMTRYADSVKGRFTISRDNSKNTLYLQMNSLRAEDTAVYYCARVGYGGNSDYWGQGTLVTVSS VL: DIQMTQSPSSVSASVGDRLTIICRASQDINRWLAWYQQTPGNAPKLLIHSATSLQSGVPSRFSGSGSGTDFTLTINSLQPEDFATYYCQQADSFPLTFGGGTKVEIK |
| 0.04 | 0.04 | – | C5A (XPA23) VH K31D (antibody, V domains shown) VH: EVQLLESGGGLVQPGGSLRLSCAASGFTFSDYFMFWVRQAPGKGLEWVSVISPSGGMTRYADSVKGRFTISRDNSKNTLYLQMNSLRAEDTAVYYCARVGYGGNSDYWGQGTLVTVSS VL: DIQMTQSPSSVSASVGDRLTIICRASQDINRWLAWYQQTPGNAPKLLIHSATSLQSGVPSRFSGSGSGTDFTLTINSLQPEDFATYYCQQADSFPLTFGGGTKVEIK |
| 0.04 | 0.04 | – | C5A (XPA23) VH Y32N (antibody, V domains shown) VH: EVQLLESGGGLVQPGGSLRLSCAASGFTFSKNFMFWVRQAPGKGLEWVSVISPSGGMTRYADSVKGRFTISRDNSKNTLYLQMNSLRAEDTAVYYCARVGYGGNSDYWGQGTLVTVSS VL: DIQMTQSPSSVSASVGDRLTIICRASQDINRWLAWYQQTPGNAPKLLIHSATSLQSGVPSRFSGSGSGTDFTLTINSLQPEDFATYYCQQADSFPLTFGGGTKVEIK |
| 0.86 | 0.86 | – | C5A (XPA23) VH F33E (antibody, V domains shown) VH: EVQLLESGGGLVQPGGSLRLSCAASGFTFSKYEMFWVRQAPGKGLEWVSVISPSGGMTRYADSVKGRFTISRDNSKNTLYLQMNSLRAEDTAVYYCARVGYGGNSDYWGQGTLVTVSS VL: DIQMTQSPSSVSASVGDRLTIICRASQDINRWLAWYQQTPGNAPKLLIHSATSLQSGVPSRFSGSGSGTDFTLTINSLQPEDFATYYCQQADSFPLTFGGGTKVEIK |
| 0.78 | 0.78 | – | C5A (XPA23) VH F33Q (antibody, V domains shown) VH: EVQLLESGGGLVQPGGSLRLSCAASGFTFSKYQMFWVRQAPGKGLEWVSVISPSGGMTRYADSVKGRFTISRDNSKNTLYLQMNSLRAEDTAVYYCARVGYGGNSDYWGQGTLVTVSS VL: DIQMTQSPSSVSASVGDRLTIICRASQDINRWLAWYQQTPGNAPKLLIHSATSLQSGVPSRFSGSGSGTDFTLTINSLQPEDFATYYCQQADSFPLTFGGGTKVEIK |
| 0.85 | 0.85 | – | C5A (XPA23) VH F33K (antibody, V domains shown) VH: EVQLLESGGGLVQPGGSLRLSCAASGFTFSKYKMFWVRQAPGKGLEWVSVISPSGGMTRYADSVKGRFTISRDNSKNTLYLQMNSLRAEDTAVYYCARVGYGGNSDYWGQGTLVTVSS VL: DIQMTQSPSSVSASVGDRLTIICRASQDINRWLAWYQQTPGNAPKLLIHSATSLQSGVPSRFSGSGSGTDFTLTINSLQPEDFATYYCQQADSFPLTFGGGTKVEIK |
| 0.73 | 0.73 | – | C5A (XPA23) VH F33S (antibody, V domains shown) VH: EVQLLESGGGLVQPGGSLRLSCAASGFTFSKYSMFWVRQAPGKGLEWVSVISPSGGMTRYADSVKGRFTISRDNSKNTLYLQMNSLRAEDTAVYYCARVGYGGNSDYWGQGTLVTVSS VL: DIQMTQSPSSVSASVGDRLTIICRASQDINRWLAWYQQTPGNAPKLLIHSATSLQSGVPSRFSGSGSGTDFTLTINSLQPEDFATYYCQQADSFPLTFGGGTKVEIK |
| 0.62 | 0.62 | – | C5A (XPA23) VH Y32H (antibody, V domains shown) VH: EVQLLESGGGLVQPGGSLRLSCAASGFTFSKHFMFWVRQAPGKGLEWVSVISPSGGMTRYADSVKGRFTISRDNSKNTLYLQMNSLRAEDTAVYYCARVGYGGNSDYWGQGTLVTVSS VL: DIQMTQSPSSVSASVGDRLTIICRASQDINRWLAWYQQTPGNAPKLLIHSATSLQSGVPSRFSGSGSGTDFTLTINSLQPEDFATYYCQQADSFPLTFGGGTKVEIK |
| 0.04 | 0.04 | – | C5A (XPA23) VH K31Y (antibody, V domains shown) VH: EVQLLESGGGLVQPGGSLRLSCAASGFTFSYYFMFWVRQAPGKGLEWVSVISPSGGMTRYADSVKGRFTISRDNSKNTLYLQMNSLRAEDTAVYYCARVGYGGNSDYWGQGTLVTVSS VL: DIQMTQSPSSVSASVGDRLTIICRASQDINRWLAWYQQTPGNAPKLLIHSATSLQSGVPSRFSGSGSGTDFTLTINSLQPEDFATYYCQQADSFPLTFGGGTKVEIK |
| 0.8 | – | 0.8 | C5A (XPA23) VH Y32T (antibody, V domains shown) VH: EVQLLESGGGLVQPGGSLRLSCAASGFTFSKTFMFWVRQAPGKGLEWVSVISPSGGMTRYADSVKGRFTISRDNSKNTLYLQMNSLRAEDTAVYYCARVGYGGNSDYWGQGTLVTVSS VL: DIQMTQSPSSVSASVGDRLTIICRASQDINRWLAWYQQTPGNAPKLLIHSATSLQSGVPSRFSGSGSGTDFTLTINSLQPEDFATYYCQQADSFPLTFGGGTKVEIK |
| 0.12 | 0.12 | – | C5A (XPA23) VH Y32E (antibody, V domains shown) VH: EVQLLESGGGLVQPGGSLRLSCAASGFTFSKEFMFWVRQAPGKGLEWVSVISPSGGMTRYADSVKGRFTISRDNSKNTLYLQMNSLRAEDTAVYYCARVGYGGNSDYWGQGTLVTVSS VL: DIQMTQSPSSVSASVGDRLTIICRASQDINRWLAWYQQTPGNAPKLLIHSATSLQSGVPSRFSGSGSGTDFTLTINSLQPEDFATYYCQQADSFPLTFGGGTKVEIK |
| 0.9 | 0.9 | – | C5A (XPA23) VH K31R (antibody, V domains shown) VH: EVQLLESGGGLVQPGGSLRLSCAASGFTFSRYFMFWVRQAPGKGLEWVSVISPSGGMTRYADSVKGRFTISRDNSKNTLYLQMNSLRAEDTAVYYCARVGYGGNSDYWGQGTLVTVSS VL: DIQMTQSPSSVSASVGDRLTIICRASQDINRWLAWYQQTPGNAPKLLIHSATSLQSGVPSRFSGSGSGTDFTLTINSLQPEDFATYYCQQADSFPLTFGGGTKVEIK |
| 0.77 | 0.77 | – | C5A (XPA23) VH F33Y (antibody, V domains shown) VH: EVQLLESGGGLVQPGGSLRLSCAASGFTFSKYYMFWVRQAPGKGLEWVSVISPSGGMTRYADSVKGRFTISRDNSKNTLYLQMNSLRAEDTAVYYCARVGYGGNSDYWGQGTLVTVSS VL: DIQMTQSPSSVSASVGDRLTIICRASQDINRWLAWYQQTPGNAPKLLIHSATSLQSGVPSRFSGSGSGTDFTLTINSLQPEDFATYYCQQADSFPLTFGGGTKVEIK |
| 0.92 | 0.92 | – | C5A (XPA23) VH F33D (antibody, V domains shown) VH: EVQLLESGGGLVQPGGSLRLSCAASGFTFSKYDMFWVRQAPGKGLEWVSVISPSGGMTRYADSVKGRFTISRDNSKNTLYLQMNSLRAEDTAVYYCARVGYGGNSDYWGQGTLVTVSS VL: DIQMTQSPSSVSASVGDRLTIICRASQDINRWLAWYQQTPGNAPKLLIHSATSLQSGVPSRFSGSGSGTDFTLTINSLQPEDFATYYCQQADSFPLTFGGGTKVEIK |
